Laboratory results: paper PMC5322387 (2017)

B1: E2 L2S L2S didomain (protein)
chain: HMQVLLPALSPTMTMGTVQRWEKKVGEKLSEGDLLAEIETDKATIGFEVQEEGYLAKILVPEGTRDVPLGTPLCIIVEKEADISAFADYRPTEVTDLKPQVPPPTPPPVAAVPPTPQPLAPTPSAPCPATPAGPKGRVFVSPLAKKLAVEKGIDLTQVKGTGPDGRITKKDIDSFV
B2: PDK4 (protein)
chain: not shown
modifications: lipoylated, DANS-As-labeled L2S
B3: E3BP L3S' L3S' didomain (protein)
chain: PIKILMPSLSPTMEEGNIVKWLKKEGEAVSAGDALCEIETDKAVVTLDASDDGILAKIVVEEGSKNIRLGSLIGLIVEEGEDWKHVEIPKDVGPPPPVSKPSEPRPSPEPQISIPVKKEHIPGTLRFRLSPAARNILEKHSLDASQGTATGPRGIFTKEDALKLV
B4: PDK1 (protein)
chain: not shown
modifications: lipoylated, DANS-As-labeled L2S
B5: PDK1 (protein)
chain: not shown
modifications: lipoylated, DANS-As-labeled L1
B6: PDK4 (protein)
chain: not shown
modifications: L2 lipoylation Lys to Ala, lipoylated, DANS-As-labeled
B7: PDK1 (protein)
chain: not shown
modifications: L2 lipoylation Lys to Ala, lipoylated, DANS-As-labeled
B8: PDK3 (protein)
chain: not shown
modifications: L1 lipoylation Lys to Ala, lipoylated, DANS-As-labeled
B9: PDK4 (protein)
chain: not shown
modifications: lipoylated, DANS-As-labeled L3S'
B10: PDK4 (protein)
chain: not shown
modifications: L1 lipoylation Lys to Ala, lipoylated, DANS-As-labeled
B11: PDK1 (protein)
chain: not shown
modifications: L1 lipoylation Lys to Ala, lipoylated, DANS-As-labeled
B12: E2 L1 L1 lipoyl domain (protein)
chain: HQKVPLPSLSPTMQAGTIARWEKKEGDKINEGDLIAEVETDKATVGFESLEECYMAKILVAEGTRDVPIGAIICITV
B13: PDK4 (protein)
chain: not shown
modifications: lipoylated, DANS-As-labeled L1
B14: PDK3 (protein)
chain: not shown
modifications: L2 lipoylation Lys to Ala, lipoylated, DANS-As-labeled
B15: PDK3 (protein)
chain: not shown
modifications: lipoylated, DANS-As-labeled L2S
B16: PDK4 (protein)
chain: not shown
modifications: dapoxyl-labeled L3S'
B17: PDK3 (protein)
chain: not shown
modifications: lipoylated, DANS-As-labeled L3S'
B18: E2 L1L2S-ML1 L1L2S tridomain (protein)
chain: HQKVPLPSLSPTMQAGTIARWEKKEGDKINEGDLIAEVETDKATVGFESLEECYMAKILVAEGTRDVPIGAIICITVGKPEDIEAFKNYTLDSSAAPTPQAAPAPTPAATASPPTPSAQAPGSSYPPHMQVLLPALSPTMTMGTVQRWEKKVGEKLSEGDLLAEIETDKATIGFEVQEEGYLAKILVPEGTRDVPLGTPLCIIVEKEADISAFADYRPTEVTDLKPQVPPPTPPPVAAVPPTPQPLAPTPSAPCPATPAGPKGRVFVSPLAKKLAVEKGIDLTQVKGTGPDGRITKKDIDSFV
B19: E2 L1L2S-ML2 L1L2S tridomain (protein)
chain: B18 chain
B20: PDK3 (protein)
chain: not shown
modifications: lipoylated, DANS-As-labeled L1

How the values were obtained:
PDK2 [1] = target: T1, PDK2 (Homo sapiens, UniProt Q15119); test: fluorescence titration
E2 L2S L2S didomain = target: B1; test: fluorescence titration
PDK2 [2] = target: T1, PDK2; test: fluorescence titration (quenching)
E2 L1 L1 lipoyl domain = target: B12; test: fluorescence titration
[3] = target: B19; test: fluorescence titration
[4] = target: B18; test: fluorescence titration
E3BP L3S' L3S' didomain [5] = target: B3; test: fluorescence titration
E3BP L3S' L3S' didomain [6] = target: B3; test: fluorescence titration (quenching)

Binder: B1
Kd (PDK2 [1]): 1380 nM

Binder: B2
Kd (E2 L2S L2S didomain): 2070 nM

Binder: B3
Kd (PDK2 [2]): 25 nM | Kd (PDK2 [1]): 2070 nM

Binder: B4
Kd (E2 L2S L2S didomain): 17100 nM

Binder: B5
Kd (E2 L1 L1 lipoyl domain): 4430 nM

Binder: B6
Kd [3]: 397 nM

Binder: B7
Kd [3]: 3620 nM

Binder: B8
Kd [4]: 540 nM

Binder: B9
Kd (E3BP L3S' L3S' didomain [5]): 5930 nM

Binder: B10
Kd [4]: 270 nM

Binder: B11
Kd [4]: 2100 nM

Binder: B12
Kd (PDK2 [1]): 910 nM

Binder: B13
Kd (E2 L1 L1 lipoyl domain): 350 nM

Binder: B14
Kd [3]: 396 nM

Binder: B15
Kd (E2 L2S L2S didomain): 1210 nM

Binder: B16
Kd (E3BP L3S' L3S' didomain [5]): 5020 nM

Binder: B17
Kd (E3BP L3S' L3S' didomain [6]): 103 nM

Binder: B18
Kd (PDK2 [1]): 890 nM

Binder: B19
Kd (PDK2 [1]): 640 nM

Binder: B20
Kd (E2 L1 L1 lipoyl domain): 620 nM
